Test results reported in the Immune Epitope Database (IEDB).

Columns and labels:
HLA-B*15:03 = assay: IEDB peptide-MHC binding, purified MHC/competitive/radioactivity; filed as Kd, often an IC50 or EC50 that approximates it; ≥ and ≤ were set here for values at or beyond the usual limits of such assays
HLA-B*15:01 [1] = assay: as above; conditions: source organism: Vaccinia virus WR
HLA-B*35:01 = assay: as above; conditions: source organism: Triticum aestivum
HLA-B*53:01 = assay: as above; conditions: source organism: Triticum aestivum
HLA-B*07:02 = assay: as above; conditions: source organism: Triticum aestivum
HLA-B*51:01 [2] = assay: as above; conditions: source organism: Triticum aestivum
HLA-B*54:01 = assay: as above; conditions: source organism: Triticum aestivum
HLA-B*48:01 = assay: IEDB peptide-MHC binding, purified MHC/direct/fluorescence; filed as Kd, often an IC50 or EC50 that approximates it; ≥ and ≤ were set here for values at or beyond the usual limits of such assays; conditions: source organism: Salmonella enterica subsp. enterica serovar Typhi
HLA-A*02:06 = assay: IEDB peptide-MHC binding, purified MHC/competitive/radioactivity; filed as Kd, often an IC50 or EC50 that approximates it; ≥ and ≤ were set here for values at or beyond the usual limits of such assays; conditions: source organism: Human immunodeficiency virus type 1 BH10
HLA-A*02:02 = assay: as above; conditions: source organism: Human immunodeficiency virus type 1 BH10
HLA-A*02:03 = assay: as above; conditions: source organism: Human immunodeficiency virus type 1 BH10
HLA-A*02:01 [3] = assay: as above; conditions: source organism: Human immunodeficiency virus type 1 BH10
HLA-A*68:02 = assay: as above; conditions: source organism: Human immunodeficiency virus type 1 BH10
HLA-A*03:01 = assay: IEDB peptide-MHC binding, purified MHC/competitive/fluorescence; filed as Kd, often an IC50 or EC50 that approximates it; ≥ and ≤ were set here for values at or beyond the usual limits of such assays
HLA-A*11:01 = assay: IEDB peptide-MHC binding, purified MHC/competitive/fluorescence; ≥ and ≤ were set here for values at or beyond the usual limits of such assays
HLA-A*24:02 = assay: as above; conditions: source organism: Sudan ebolavirus
HLA-B*15:17 = assay: IEDB peptide-MHC binding, purified MHC/competitive/fluorescence; filed as Kd, often an IC50 or EC50 that approximates it; ≥ and ≤ were set here for values at or beyond the usual limits of such assays; conditions: source organism: Homo sapiens
HLA-A*69:01 = assay: as above; conditions: source organism: Homo sapiens
HLA-B*51:01 [4] = assay: as above; conditions: source organism: Homo sapiens
HLA-B*18:01 = assay: as above; conditions: source organism: Homo sapiens
HLA-B*57:01 = assay: as above; conditions: source organism: Homo sapiens
HLA-B*39:01 = assay: as above; conditions: source organism: Homo sapiens
HLA-B*27:03 = assay: as above; conditions: source organism: Homo sapiens
HLA-A*26:01 = assay: as above; conditions: source organism: Homo sapiens
HLA-B*46:01 = assay: as above; conditions: source organism: Homo sapiens
HLA-A*02:01 [5] = assay: IEDB peptide-MHC binding, purified MHC/direct/fluorescence; filed as Kd, often an IC50 or EC50 that approximates it; ≥ and ≤ were set here for values at or beyond the usual limits of such assays; conditions: source organism: Homo sapiens
HLA-B*15:01 [6] = assay: IEDB peptide-MHC binding, purified MHC/competitive/fluorescence; filed as Kd, often an IC50 or EC50 that approximates it; ≥ and ≤ were set here for values at or beyond the usual limits of such assays; conditions: source organism: Escherichia coli B171
[7] = source organism: Vaccinia virus WR

QLYSTLLSF
Kd (HLA-B*15:03; [7]): 0.565 nM
Kd (HLA-B*15:01 [1]): 3 nM

QPFLQPQL
Kd (HLA-B*35:01): ≥ 87800 nM
Kd (HLA-B*53:01): ≥ 87700 nM
Kd (HLA-B*07:02): 349 nM
Kd (HLA-B*51:01 [2]): 1110 nM
Kd (HLA-B*54:01): 6350 nM

RAVEPGSML
Kd (HLA-B*48:01): 712 nM

RGPGRAFVTI
Kd (HLA-A*02:06): 5790 nM
Kd (HLA-A*02:02): ≥ 70000 nM
Kd (HLA-A*02:03): 12200 nM
Kd (HLA-A*02:01 [3]): 4600 nM
Kd (HLA-A*68:02): ≥ 69800 nM

RQVVDFFKF
Kd (HLA-B*15:03; [7]): 0.344 nM

RSSRGVQFL
Kd (HLA-B*15:03; source organism: Vaccinia virus Copenhagen): 123 nM

RVDEIILFK
Kd (HLA-A*03:01; source organism: Bacillus cereus G9241): 156 nM

SSVSPPNVL
Kd (HLA-B*15:03; [7]): 18.3 nM

TESDMDYHK
IC50 (HLA-A*11:01; source organism: Zaire ebolavirus): ≥ 174000 nM

TFLQSPPIR
IC50 (HLA-A*24:02): 38800 nM
IC50 (HLA-A*11:01; source organism: Sudan ebolavirus): ≥ 119000 nM

TKVMFVIRF
Kd (HLA-B*15:03; [7]): 30.8 nM

TLKDGDFIL
Kd (HLA-B*15:17): ≥ 20000 nM
Kd (HLA-A*69:01): ≥ 20000 nM
Kd (HLA-B*51:01 [4]): ≥ 20000 nM
Kd (HLA-B*18:01): ≥ 20000 nM
Kd (HLA-B*57:01): ≥ 20000 nM
Kd (HLA-B*39:01): ≥ 20000 nM
Kd (HLA-B*27:03): ≥ 20000 nM
Kd (HLA-A*26:01): ≥ 20000 nM
Kd (HLA-B*46:01): ≥ 20000 nM
Kd (HLA-A*02:01 [5]): ≤ 1 nM

TLYDRYLIH
Kd (HLA-A*03:01; source organism: Coxiella burnetii RSA 331): 6.9 nM

VEVEPGSSF
Kd (HLA-B*15:03; [7]): 1.66 nM

VMAGVFARY
Kd (HLA-A*03:01; source organism: Escherichia coli B171): 21.4 nM
Kd (HLA-B*15:01 [6]): 61.7 nM
